Laboratory results from publication PMC9482650, “Quantitative fragmentomics allow affinity mapping of interactomes” (Nature Communications, 2022).

Assays:
Assay in all cases: holdup assay
Design in all cases: key: below the threshold = too weak to quantify, mostly under pKd 3.1 to 4
DLG3_2, Q92796 = molecular target: T1, DLG3_2, Q92796
T1 sequence (Q92796 221-321, limits assumed, looked up): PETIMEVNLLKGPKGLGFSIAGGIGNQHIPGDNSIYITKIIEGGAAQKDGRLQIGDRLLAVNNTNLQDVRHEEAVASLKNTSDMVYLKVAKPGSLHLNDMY

DLG4_1, P78352 = molecular target: DLG4_1, P78352
FRMPD4, Q14CM0 = molecular target: FRMPD4, Q14CM0
GRIP2_7, Q9C0E4 = molecular target: GRIP2_7, Q9C0E4
HTRA1, Q92743 = molecular target: HTRA1, Q92743
HTRA4, P83105 = molecular target: T2, HTRA4, P83105
T2 sequence (P83105 378-476, limits assumed, looked up): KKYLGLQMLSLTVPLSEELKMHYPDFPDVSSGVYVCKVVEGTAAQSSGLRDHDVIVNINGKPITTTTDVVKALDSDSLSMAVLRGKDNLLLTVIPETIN

IL16_3, Q14005 = molecular target: IL16_3, Q14005
Inadl_3, Q8NI35 = molecular target: Inadl_3, Q8NI35
Inadl_9, Q8NI35 = molecular target: Inadl_9, Q8NI35
LIMK2, P53671 = molecular target: LIMK2, P53671
LIN7A, O14910 = molecular target: T3, LIN7A, O14910
T3 sequence (O14910 103-200, limits assumed, looked up): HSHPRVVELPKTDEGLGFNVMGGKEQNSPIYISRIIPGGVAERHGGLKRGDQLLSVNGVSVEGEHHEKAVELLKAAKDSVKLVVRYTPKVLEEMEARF

LNX1_1, Q8TBB1 = molecular target: LNX1_1, Q8TBB1
MAGI1_2, Q96QZ7 = molecular target: MAGI1_2, Q96QZ7
MAGI2_3, Q86UL8 = molecular target: MAGI2_3, Q86UL8
MAGI2_5, Q86UL8 = molecular target: MAGI2_5, Q86UL8
MAST1, Q9Y2H9 = molecular target: MAST1, Q9Y2H9
MPP7, Q5T2T1 = molecular target: T4, MPP7, Q5T2T1
T4 sequence (Q5T2T1 134-230, limits assumed, looked up): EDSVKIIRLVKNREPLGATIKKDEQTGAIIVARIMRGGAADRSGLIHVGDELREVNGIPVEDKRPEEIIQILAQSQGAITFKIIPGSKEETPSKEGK

NHERF2_2, Q15599 = molecular target: NHERF2_2, Q15599
NHERF3_4, Q5T2W1 = molecular target: T5, NHERF3_4, Q5T2W1
T5 sequence (Q5T2W1 373-468, limits assumed, looked up): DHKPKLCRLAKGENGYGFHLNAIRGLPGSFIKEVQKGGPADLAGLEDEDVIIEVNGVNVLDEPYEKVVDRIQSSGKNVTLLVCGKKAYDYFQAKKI

NHERF4_2, Q86UT5 = molecular target: NHERF4_2, Q86UT5
PARD3B_1, Q8TEW8 = molecular target: T6, PARD3B_1, Q8TEW8
T6 sequence (Q8TEW8 196-299, limits assumed, looked up): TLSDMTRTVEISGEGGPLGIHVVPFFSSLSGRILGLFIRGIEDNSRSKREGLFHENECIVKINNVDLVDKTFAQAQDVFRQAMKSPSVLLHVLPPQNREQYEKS

PDZRN3_1, Q9UPQ7 = molecular target: T7, PDZRN3_1, Q9UPQ7
T7 sequence (Q9UPQ7 244-349, limits assumed, looked up): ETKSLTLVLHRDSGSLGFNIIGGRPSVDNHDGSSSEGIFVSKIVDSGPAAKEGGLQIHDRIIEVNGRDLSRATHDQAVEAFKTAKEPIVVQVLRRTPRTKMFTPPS

PICK1, Q9NRD5 = molecular target: PICK1, Q9NRD5
RAPGEF6, Q8TEU7 = molecular target: T8, RAPGEF6, Q8TEU7
T8 sequence (Q8TEU7 525-625, limits assumed, looked up): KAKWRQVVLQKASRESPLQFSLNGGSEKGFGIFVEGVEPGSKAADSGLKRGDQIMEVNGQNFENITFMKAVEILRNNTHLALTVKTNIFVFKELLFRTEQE

SCRIB_3, Q14160 = molecular target: SCRIB_3, Q14160
SNTG1, Q9NSN8 = molecular target: T9, SNTG1, Q9NSN8
T9 sequence (Q9NSN8 52-150, limits assumed, looked up): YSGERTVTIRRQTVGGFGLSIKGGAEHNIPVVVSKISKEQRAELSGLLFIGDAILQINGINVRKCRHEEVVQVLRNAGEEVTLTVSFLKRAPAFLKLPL

SNTG2, Q9NY99 = molecular target: T10, SNTG2, Q9NY99
T10 sequence (Q9NY99 68-166, limits assumed, looked up): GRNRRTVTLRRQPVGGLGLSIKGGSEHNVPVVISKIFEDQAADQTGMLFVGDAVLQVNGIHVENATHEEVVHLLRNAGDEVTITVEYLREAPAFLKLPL

[1] = plain residues with an end cap or a label only (N-terminal biotin on a linker: ttds)
[2] = plain residues with an end cap or a label only (N-terminal biotin on a linker: ahx)

Sequence of PICK1, Q9NRD5 (Q9NRD5 17-115): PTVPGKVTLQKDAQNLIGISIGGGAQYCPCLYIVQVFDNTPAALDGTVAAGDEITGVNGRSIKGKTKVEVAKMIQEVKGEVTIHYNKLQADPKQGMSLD
Sequence of LNX1_1, Q8TBB1 (Q8TBB1 261-371): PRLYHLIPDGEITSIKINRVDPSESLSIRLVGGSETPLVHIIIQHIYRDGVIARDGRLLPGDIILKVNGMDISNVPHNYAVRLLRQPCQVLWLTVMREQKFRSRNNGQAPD
Sequence of MAST1, Q9Y2H9 (Q9Y2H9 962-1065): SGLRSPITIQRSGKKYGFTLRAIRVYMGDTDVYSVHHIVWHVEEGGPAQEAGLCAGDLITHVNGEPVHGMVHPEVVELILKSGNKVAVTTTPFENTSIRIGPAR
Sequence of MAGI2_5, Q86UL8 (Q86UL8 915-1017): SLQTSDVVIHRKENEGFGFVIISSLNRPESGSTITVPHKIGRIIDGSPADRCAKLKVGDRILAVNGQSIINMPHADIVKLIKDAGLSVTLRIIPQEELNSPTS
Sequence of HTRA1, Q92743 (Q92743 360-477): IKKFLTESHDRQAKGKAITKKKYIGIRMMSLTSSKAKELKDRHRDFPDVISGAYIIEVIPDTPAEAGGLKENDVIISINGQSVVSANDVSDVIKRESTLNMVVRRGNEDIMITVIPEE
Sequence of FRMPD4, Q14CM0 (Q14CM0 67-160): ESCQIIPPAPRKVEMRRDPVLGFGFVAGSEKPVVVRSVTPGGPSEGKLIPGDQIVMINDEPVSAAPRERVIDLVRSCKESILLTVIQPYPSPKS
Sequence of IL16_3, Q14005 (Q14005 1107-1207): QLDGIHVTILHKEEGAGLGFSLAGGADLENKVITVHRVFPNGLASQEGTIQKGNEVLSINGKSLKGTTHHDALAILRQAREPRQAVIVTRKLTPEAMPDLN
Sequence of LIMK2, P53671 (P53671 143-248): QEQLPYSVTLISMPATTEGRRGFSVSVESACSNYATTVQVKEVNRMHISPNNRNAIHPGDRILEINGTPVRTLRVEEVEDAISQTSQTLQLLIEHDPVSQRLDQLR
Sequence of Inadl_9, Q8NI35 (Q8NI35 1530-1615): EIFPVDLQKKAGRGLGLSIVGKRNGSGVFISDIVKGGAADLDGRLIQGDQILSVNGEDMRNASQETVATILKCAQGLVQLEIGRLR
Sequence of Inadl_3, Q8NI35 (Q8NI35 359-469): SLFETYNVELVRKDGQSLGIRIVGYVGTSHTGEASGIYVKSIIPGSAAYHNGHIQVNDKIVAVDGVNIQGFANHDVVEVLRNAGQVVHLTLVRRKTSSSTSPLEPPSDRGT
Sequence of DLG4_1, P78352 (P78352 62-152): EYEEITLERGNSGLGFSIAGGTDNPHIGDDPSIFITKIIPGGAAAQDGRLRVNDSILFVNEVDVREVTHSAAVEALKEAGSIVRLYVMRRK
Sequence of NHERF4_2, Q86UT5 (Q86UT5 220-308): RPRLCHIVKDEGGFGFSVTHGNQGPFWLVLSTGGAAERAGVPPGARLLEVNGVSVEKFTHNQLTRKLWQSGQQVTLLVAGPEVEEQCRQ
Sequence of MAGI1_2, Q96QZ7 (Q96QZ7 456-580): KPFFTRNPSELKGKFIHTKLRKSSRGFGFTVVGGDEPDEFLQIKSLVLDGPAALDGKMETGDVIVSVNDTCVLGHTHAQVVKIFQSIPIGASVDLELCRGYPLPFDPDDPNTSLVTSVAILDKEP
Sequence of GRIP2_7, Q9C0E4 (Q9C0E4 934-1023): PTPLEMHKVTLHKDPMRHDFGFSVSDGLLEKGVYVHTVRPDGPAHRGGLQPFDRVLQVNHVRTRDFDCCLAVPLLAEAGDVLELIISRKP
Sequence of MAGI2_3, Q86UL8 (Q86UL8 600-682): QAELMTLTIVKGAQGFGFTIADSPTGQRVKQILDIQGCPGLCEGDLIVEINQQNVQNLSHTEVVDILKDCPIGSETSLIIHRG
Sequence of SCRIB_3, Q14160 (Q14160 999-1103): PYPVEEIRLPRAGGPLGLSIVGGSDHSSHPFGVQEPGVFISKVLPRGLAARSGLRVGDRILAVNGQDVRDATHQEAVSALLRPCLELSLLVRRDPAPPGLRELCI
Sequence of NHERF2_2, Q15599 (Q15599 142-238): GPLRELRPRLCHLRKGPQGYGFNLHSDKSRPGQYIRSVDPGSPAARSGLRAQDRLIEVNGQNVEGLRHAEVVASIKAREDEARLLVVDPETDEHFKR

DKDPHSETAL [TMIGD1, Q6UXZ0]
pKd (DLG3_2, Q92796; [1]): below the threshold
pKd (DLG4_1, P78352; [1]): below the threshold
pKd (FRMPD4, Q14CM0; [1]): 4.34
pKd (GRIP2_7, Q9C0E4; [1]): below the threshold
pKd (HTRA1, Q92743; [1]): below the threshold
pKd (HTRA4, P83105; [1]): below the threshold
pKd (IL16_3, Q14005; [1]): below the threshold
pKd (Inadl_3, Q8NI35; [1]): below the threshold
pKd (Inadl_9, Q8NI35; [1]): below the threshold
pKd (LIMK2, P53671; [1]): below the threshold
pKd (LIN7A, O14910; [1]): below the threshold
pKd (LNX1_1, Q8TBB1; [1]): below the threshold
pKd (MAGI1_2, Q96QZ7; [1]): below the threshold
pKd (MAGI2_3, Q86UL8; [1]): 3.52
pKd (MAGI2_5, Q86UL8; [1]): 3.67
pKd (MAST1, Q9Y2H9; [1]): 4.85
pKd (MPP7, Q5T2T1; [1]): below the threshold
pKd (NHERF2_2, Q15599; [1]): 4.66
pKd (NHERF3_4, Q5T2W1; [1]): 3.52
pKd (NHERF4_2, Q86UT5; [1]): below the threshold
pKd (PARD3B_1, Q8TEW8; [1]): below the threshold
pKd (PDZRN3_1, Q9UPQ7; [1]): 4.64
pKd (PICK1, Q9NRD5; [1]): below the threshold
pKd (RAPGEF6, Q8TEU7; [1]): below the threshold
pKd (SCRIB_3, Q14160; [1]): 5.01
pKd (SNTG1, Q9NSN8; [1]): 4.1
pKd (SNTG2, Q9NY99; [1]): 4.06

QRQARSETLV [HPV59-E6, Q81964]
pKd (DLG3_2, Q92796; [1]): 5.17
pKd (DLG4_1, P78352; [1]): 5.11
pKd (FRMPD4, Q14CM0; [1]): below the threshold
pKd (GRIP2_7, Q9C0E4; [1]): below the threshold
pKd (HTRA1, Q92743; [1]): 4.14
pKd (HTRA4, P83105; [1]): 3.78
pKd (IL16_3, Q14005; [1]): below the threshold
pKd (Inadl_3, Q8NI35; [1]): below the threshold
pKd (Inadl_9, Q8NI35; [1]): below the threshold
pKd (LIMK2, P53671; [1]): below the threshold
pKd (LIN7A, O14910; [1]): below the threshold
pKd (LNX1_1, Q8TBB1; [1]): below the threshold
pKd (MAGI1_2, Q96QZ7; [1]): 6.04
pKd (MAGI2_3, Q86UL8; [1]): 4.73
pKd (MAGI2_5, Q86UL8; [1]): 5.02
pKd (MAST1, Q9Y2H9; [1]): 4.62
pKd (MPP7, Q5T2T1; [1]): below the threshold
pKd (NHERF2_2, Q15599; [1]): below the threshold
pKd (NHERF3_4, Q5T2W1; [1]): below the threshold
pKd (NHERF4_2, Q86UT5; [1]): below the threshold
pKd (PARD3B_1, Q8TEW8; [1]): below the threshold
pKd (PDZRN3_1, Q9UPQ7; [1]): 4.22
pKd (PICK1, Q9NRD5; [1]): 3.85
pKd (RAPGEF6, Q8TEU7; [1]): below the threshold
pKd (SCRIB_3, Q14160; [1]): 3.86
pKd (SNTG1, Q9NSN8; [1]): 4.17
pKd (SNTG2, Q9NY99; [1]): 4.05

SDSSGQEYSL [KCTD3, Q9Y597]
pKd (DLG3_2, Q92796; [2]): below the threshold
pKd (DLG4_1, P78352; [2]): below the threshold
pKd (FRMPD4, Q14CM0; [2]): 4.69
pKd (GRIP2_7, Q9C0E4; [2]): below the threshold
pKd (HTRA1, Q92743; [2]): 3.98
pKd (HTRA4, P83105; [2]): below the threshold
pKd (IL16_3, Q14005; [2]): below the threshold
pKd (Inadl_3, Q8NI35; [2]): below the threshold
pKd (Inadl_9, Q8NI35; [2]): below the threshold
pKd (LIMK2, P53671; [2]): below the threshold
pKd (LIN7A, O14910; [2]): below the threshold
pKd (LNX1_1, Q8TBB1; [2]): below the threshold
pKd (MAGI1_2, Q96QZ7; [2]): below the threshold
pKd (MAGI2_3, Q86UL8; [2]): below the threshold
pKd (MAGI2_5, Q86UL8; [2]): below the threshold
pKd (MAST1, Q9Y2H9; [2]): below the threshold
pKd (MPP7, Q5T2T1; [2]): 4.1
pKd (NHERF2_2, Q15599; [2]): below the threshold
pKd (NHERF3_4, Q5T2W1; [2]): below the threshold
pKd (NHERF4_2, Q86UT5; [2]): below the threshold
pKd (PARD3B_1, Q8TEW8; [2]): below the threshold
pKd (PDZRN3_1, Q9UPQ7; [2]): below the threshold
pKd (PICK1, Q9NRD5; [2]): below the threshold
pKd (RAPGEF6, Q8TEU7; [2]): below the threshold
pKd (SCRIB_3, Q14160; [2]): below the threshold
pKd (SNTG1, Q9NSN8; [2]): below the threshold
pKd (SNTG2, Q9NY99; [2]): below the threshold

ESLLLGPSNF [SHROOM4, Q9ULL8]
pKd (DLG3_2, Q92796; [2]): below the threshold
pKd (DLG4_1, P78352; [2]): below the threshold
pKd (FRMPD4, Q14CM0; [2]): below the threshold
pKd (GRIP2_7, Q9C0E4; [2]): below the threshold
pKd (HTRA1, Q92743; [2]): below the threshold
pKd (HTRA4, P83105; [2]): below the threshold
pKd (IL16_3, Q14005; [2]): below the threshold
pKd (Inadl_3, Q8NI35; [2]): 3.59
pKd (Inadl_9, Q8NI35; [2]): below the threshold
pKd (LIMK2, P53671; [2]): below the threshold
pKd (LIN7A, O14910; [2]): below the threshold
pKd (LNX1_1, Q8TBB1; [2]): below the threshold
pKd (MAGI1_2, Q96QZ7; [2]): below the threshold
pKd (MAGI2_3, Q86UL8; [2]): below the threshold
pKd (MAGI2_5, Q86UL8; [2]): below the threshold
pKd (MAST1, Q9Y2H9; [2]): below the threshold
pKd (MPP7, Q5T2T1; [2]): below the threshold
pKd (NHERF2_2, Q15599; [2]): below the threshold
pKd (NHERF3_4, Q5T2W1; [2]): below the threshold
pKd (NHERF4_2, Q86UT5; [2]): below the threshold
pKd (PARD3B_1, Q8TEW8; [2]): below the threshold
pKd (PDZRN3_1, Q9UPQ7; [2]): below the threshold
pKd (PICK1, Q9NRD5; [2]): below the threshold
pKd (RAPGEF6, Q8TEU7; [2]): below the threshold
pKd (SCRIB_3, Q14160; [2]): below the threshold
pKd (SNTG1, Q9NSN8; [2]): below the threshold
pKd (SNTG2, Q9NY99; [2]): below the threshold
